Data taken from US20180344812A1 (Scripps Research, published 2018).
Bridges are numbered along the chain shown (N, C = ends). Primed or numbered codes have the meaning given here. Where no end group is shown, it is not given here. [ ]: non-standard residue; d: D form. L1″ = C4 bis(bromoacetamide) staple without lipid, joins two Cys through thioethers; L4″ = octadecanedioic acid-PEG-ornithine staple, joins two Cys through thioethers; L2″ = myristic acid-PEG-ornithine staple, joins two Cys through thioethers; L6″ = as L5, made on Rink amide resin, joins two Cys through thioethers; L1 = C4 bis(bromoacetamide) staple without lipid; L4 = octadecanedioic acid-PEG-ornithine staple; L5 = C18 diacid-Lys-PEG2-ornithine staple; L2 = myristic acid-PEG-ornithine staple; L6 = made as L5 but on Rink amide resin; L11 = not defined here; L12 = not defined here; L13 = not defined here; L7 = not defined here; L8 = not defined here; L9 = not defined here

Assays:
[1] = target: human glucagon-like peptide 1 receptor (GLP-1R) (human, UniProt P43220 24-463); test: cell-based or functional assay
[2] = target: human glucagon receptor (GCGR) (human, UniProt P47871 26-477); test: cell-based or functional assay
Chain of human glucagon receptor (GCGR) (P47871 26-477): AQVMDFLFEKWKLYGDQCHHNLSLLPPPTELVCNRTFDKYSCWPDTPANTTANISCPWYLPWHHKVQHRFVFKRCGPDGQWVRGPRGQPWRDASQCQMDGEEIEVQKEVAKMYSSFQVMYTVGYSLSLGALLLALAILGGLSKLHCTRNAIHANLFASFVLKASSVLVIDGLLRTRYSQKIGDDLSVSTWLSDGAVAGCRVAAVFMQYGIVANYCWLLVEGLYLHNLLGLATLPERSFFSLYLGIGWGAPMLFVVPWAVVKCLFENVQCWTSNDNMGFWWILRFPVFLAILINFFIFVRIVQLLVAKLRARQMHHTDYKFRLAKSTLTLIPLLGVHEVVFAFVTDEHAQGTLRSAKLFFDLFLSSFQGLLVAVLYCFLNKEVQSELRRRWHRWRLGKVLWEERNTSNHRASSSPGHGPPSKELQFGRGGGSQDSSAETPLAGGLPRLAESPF

Row | Binder | EC50, CRE-luciferase reporter in HEK293-GLP-1R-CRE cells [1] [nM] | EC50, CRE-luciferase reporter in HEK293-GCGR-CRE cells [2] [nM]
1 | H[dS]QGTFTSDYSKYLDECAAKEFICWLMNTKRNRNNIA (linker 17-24 via L1″) [mTA 15: OXM (B) and L1] | 0.03 | 0.2
2 | H[dS]QGTFTSDYSKYLDECAAKEFICWLMNTKRNRNNIA (linker 17-24 via L2″) [mTA 16: OXM (B) and L2] | 0.04 | 0.3
3 | H[dS]QGTFTSDYSKYLDECAAKEFICWLMNTKRNRNNIA (linker 17-24 via L4″) [mTA 17: OXM (B) and L4] | 2 | 3
4 | H[dS]QGTFTSDYSKYLDECAAKEFICWLMNTKRNRNNIA (linker 17-24 via L5) [mTA 18: OXM (B) and L5] | 0.2 | –
5 | H[dS]QGTFTSDYSKYLDECAAKEFICWLMNTKRNRNNIA (linker 17-24 via L6″) [mTA 19: OXM (B) and L6] | 0.2 | –
6 | H[dS]QGTFTSDYSKYLDECAAKEFICWLMNTKRNRNNIA (linker 17-24 via L7; reading uncertain; also: printed as HsQGTFTSDYSKYLDEXAAKEFIXWLMNTKRNRNNIA) [mTA 20: OXM (B) and L7] | 17 | 5.4
7 | H[dS]QGTFTSDYSKYLDECAAKEFICWLMNTKRNRNNIA (linker 17-24 via L8; reading uncertain; also: printed as HsQGTFTSDYSKYLDEXAAKEFIXWLMNTKRNRNNIA) [mTA 21: OXM (B) and L8] | 0.12 | 0.7
8 | H[dS]QGTFTSDYSKYLDECAAKEFICWLMNTKRNRNNIA (linker 17-24 via L9; not fully specified; printed as HsQGTFTSDYSKYLDEXAAKEFIXWLMNTKRNRNNIA; reading uncertain) [mTA 22: OXM (B) and L9] | 40 | 14
9 | H[dS]QGTFTSDYSKYLDECAAKEFICWLMNTKRNRNNIA (linker 17-24 via L11; reading uncertain; also: printed as HsQGTFTSDYSKYLDEXAAKEFIXWLMNTKRNRNNIA) [mTA 24: OXM (B) and L11] | 0.2 | 3
10 | H[dS]QGTFTSDYSKYLDECAAKEFICWLMNTKRNRNNIA (linker 17-24 via L12; reading uncertain; also: printed as HsQGTFTSDYSKYLDEXAAKEFIXWLMNTKRNRNNIA) [mTA 25: OXM (B) and L12] | 0.1 | 0.5
11 | H[dS]QGTFTSDYSKYLDECAAKEFICWLMNTKRNRNNIA (linker 17-24 via L13; reading uncertain; also: printed as HsQGTFTSDYSKYLDEXAAKEFIXWLMNTKRNRNNIA) [mTA 26: OXM (B) and L13] | 0.05 | 0.5
12 | H[dS]QGTFTSDYSKYLDSCAAHDFVCWLLRA (linker 17-24 via L1) [mTA 27: GLP-1/Glucagon (A) and L1] | 0.2 | 0.04
13 | H[dS]QGTFTSDYSKYLDSCAAHDFVCWLLRA (linker 17-24 via L2) [mTA 28: GLP-1/Glucagon (A) and L2] | 0.1 | 0.1
14 | H[dS]QGTFTSDYSKYLDECAAKEFICWLLRA (linker 17-24 via L1) [mTA 29: GLP-1/Glucagon (B) and L1] | 0.03 | 0.03
15 | H[dS]QGTFTSDYSKYLDECAAKEFICWLLRA (linker 17-24 via L2) [mTA 30: GLP-1/Glucagon (B) and L2] | 0.03 | 0.05
16 | H[dS]QGTFTSDYSKYLDECAAKEFICWLLRA (linker 17-24 via L4) [mTA 31: GLP-1/Glucagon (B) and L4] | 0.03 | 0.12
17 | H[dS]QGTFTSDYSKYLDECAAKEFICWLLRA (linker 17-24 via L5) [mTA 32: GLP-1/Glucagon (B) and L5] | 0.3 | 1
18 | H[dS]QGTFTSDYSKYLDECAAKEFICWLLRA (linker 17-24 via L6) [mTA 33: GLP-1/Glucagon (B) and L6] | 0.05 | 0.4
19 | H[dS]QGTFTSDYSKYLDECAAKEFICWLLRAGPSSGAPPPS (linker 17-24 via L4) [mTA 34: GLP-1/Glucagon (C) and L4] | 0.04 | 0.4
20 | H[dS]QGTFTSDYSKYLDECAAKEFICWLLRAGPSSGAPPPS (linker 17-24 via L5) [mTA 35: GLP-1/Glucagon (C) and L5] | 0.5 | 1
21 | H[dS]QGTFTSDYSKYLDECAAKEFICWLLRAGPSSGAPPPS (linker 17-24 via L6) [mTA 36: GLP-1/Glucagon (C) and L6] | 0.3 | 0.5
22 | H[dS]QGTFTSDYSKYLDECAAKEFICWLLNGGPSSGAPPPS (linker 17-24 via L4) [mTA 37: GLP-1/Glucagon (D) and L4] | 0.03 | 0.2
23 | H[dS]QGTFTSDYSKYLDECAAKEFICWLLNGGPSSGAPPPS (linker 17-24 via L5) [mTA 38: GLP-1/Glucagon (D) and L5] | 0.04 | 0.4
24 | H[dS]QGTFTSDYSKYLDECAAKEFICWLLNGGPSSGAPPPS (linker 17-24 via L6) [mTA 39: GLP-1/Glucagon (D) and L6] | 0.04 | 0.3
